Data: patent US20220125845A1 (GUANGDONG TCRCURE BIOPHARMA TECHNOLOGY, published 2022)
Where a chain is given by its changes, count along the chain named. Values belong to the molecule of their own block, whether it stands above or below them.

Key:
[1] = target: ALPP on ALPP-positive SiHa cervical cancer cells (UniProt P05187); test: cell-based or functional assay
[2] = target: T1, ALPP antigen (alkaline phosphatase, placental), coated on ELISA plates (UniProt P05187 23-506, limits assumed); test: ELISA, plate coated with 125 ng ALPP antigen, biotin goat anti-human and streptavidin-HRP, OD450
T1 construct: 125 ng ALPP antigen was coated per plate/well; the general description concerns human ALPP; also called PLAP; placental alkaline phosphatase
T1 sequence (P05187 23-506 limits assumed): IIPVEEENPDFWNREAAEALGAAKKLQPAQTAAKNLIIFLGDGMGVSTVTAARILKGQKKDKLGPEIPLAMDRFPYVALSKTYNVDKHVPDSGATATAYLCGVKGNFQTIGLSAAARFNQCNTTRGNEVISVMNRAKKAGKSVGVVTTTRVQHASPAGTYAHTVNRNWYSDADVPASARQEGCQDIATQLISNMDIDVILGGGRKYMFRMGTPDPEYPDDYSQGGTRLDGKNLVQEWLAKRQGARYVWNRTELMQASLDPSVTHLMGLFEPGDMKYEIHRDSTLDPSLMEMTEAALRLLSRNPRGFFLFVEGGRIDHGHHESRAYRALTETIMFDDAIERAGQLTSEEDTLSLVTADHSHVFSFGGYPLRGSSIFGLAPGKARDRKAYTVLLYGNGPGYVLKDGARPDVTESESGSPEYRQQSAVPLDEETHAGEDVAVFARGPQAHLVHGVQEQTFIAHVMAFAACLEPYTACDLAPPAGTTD
Method: (§1) Enzyme-linked immunosorbent assay (ELISA) plates were coated with 125 ng ALPP antigen. After blocking the plates, serial dilutions of anti-ALPP antibodies including A02 (H17E2), A04, A05, A06, A07, A08, A09, or a chimeric antibody were added to corresponding wells. Then, a Biotin-SP-AffiniPure goat anti-human antibody was added to wells containing the humanized antibodies A04, A05, A06, A07, A08, A09, or the chimeric antibody. Meanwhile, a Biotin-SP-AffiniPure goat anti-mouse Fc antibody was added to wells containing the mouse antibody H17E2. Next, HRP-conjugated streptavidin was used for biotin detection. Final detection was accomplished by assessing OD450 after 3,3′,5,5′-Tetramethylbenzidine (TMB) substrate was added. Binding curves and calculated EC₅₀ values are shown in FIG. 10A and the table below, respectively.

[3] = target: T2, ALPP on ALPP-positive SiHa cervical cancer cells (UniProt P05187 23-506, limits assumed); test: flow cytometry on SiHa cells, AF488 goat anti-human secondary
T2 construct: whole, on cells; SiHa cells (ATCC) are called ALPP-positive cervical cancer cells, and ALPP is the target meant; SiHa is a human line; also called PLAP; SiHa cells
T2 sequence (P05187 23-506 limits assumed): as above
Method: (§2) 0.2×10⁶ SiHa cells were incubated with serially diluted anti-ALPP antibodies as described herein. Afterward, an AF488 goat anti-human secondary antibody or an AF488 goat anti-mouse IgG (Fcγ fragment specific) was used to stain the cells. Then, the fluorescently stained cells were detected by flow cytometry. Binding curves and calculated EC₅₀ values are shown in FIG. 10B and the table below, respectively.

[4] = target: T2, ALPP on ALPP-positive SiHa cervical …; test: flow cytometry on SiHa cells, AF488 goat anti-mouse IgG (Fcγ specific) secondary
Method: as §2

[5] = target: T1, ALPP antigen (alkaline phosphatase, …); test: ELISA, plate coated with 125 ng ALPP antigen, biotin goat anti-mouse Fc and streptavidin-HRP, OD450
Method: as §1

Chain of ALPP on ALPP-positive SiHa cervical cancer cells (UniProt P05187) (P05187 23-506 limits assumed): as above

- EC50 [2]: 0.00481 µg/mL
- EC50 [3]: 0.233 µg/mL
B2: humanized anti-ALPP antibody A08 (antibody, V domains shown)
VH: QVQLQESGPGLVKPSQTLSLTCTVSGFSLTSYGVSWIRQPPGKGLEWIGVIWEDGSTNYHSALISRVSISVDTSKSQFSLKLSSVDAADTAVYYCARPHYGSSYVGAMEYWGQGTTVTVSS
VL: DIQMTQSPSSLSASVGDRVTITCRASENIYSYVAWYQQKPGKAPKFLIYNAKSLAEGVPSRFSGSGSGTDFTLTISSLQPEDFANYYCQHHYVSPWTFGQGTKVEIK
notes: Detected with a goat anti-human secondary antibody; also called A08Ab

- EC50 [2]: 0.00534 µg/mL
- EC50 [3]: 0.302 µg/mL
B3: humanized anti-ALPP antibody A07 (antibody, V domains shown)
VH: B2 VH with Q5K, K13A, R97K
VL: B2 VL
notes: Detected with a goat anti-human secondary antibody; also called A07Ab

- EC50 [4]: 0.211 µg/mL
- EC50 [5]: 0.0108 µg/mL
B6: parent mouse anti-ALPP antibody H17E2 (antibody, V domains shown)
VH: QVQLKESGPGLVAPSQSLSITCTVSGFSLTSYGVSWVRQPPRKGLEWLGVIWEDGSTNYHSALISRLSINKDNSKSQVFLKLNSLQTDDTATYYCAKPHYGSSYVGAMEYWGQGTSVTVSS
VL: DIQMTQSPASLTASVGETVTITCRASENIYSYVAWYQQKQGKSPQFLVYNAKSLAEGVPSRFSGSGSGTQFSLKINSLQPEDFGNYYCQHHYVSPWTFGGGTKLEIK
notes: Mouse monoclonal antibody, detected with goat anti-mouse Fc secondary antibodies; also called A02; A02 antibody

Second part, the molecule before the results:

Molecule: A02 CAR (murine H17E2 scFv, CD8 hinge and transmembrane region, 4-1BB, CD3 zeta)
- CD69 expression in CD3+ Jurkat cells (percent activated), overnight co-culture with SiHa cells [1]: 70 to 80%

B1: humanized anti-ALPP antibody A05 (antibody, V domains shown)
VH: B2 VH with Q5K, K13A
VL: B2 VL
notes: Detected with a goat anti-human secondary antibody; also called A05Ab
- EC50 [2]: 0.00491 µg/mL
- EC50 [3]: 0.225 µg/mL

B4: humanized anti-ALPP antibody A06 (antibody, V domains shown)
VH: B2 VH with Q5K, K13A, R97K
VL: B2 VL with F46L
notes: Detected with a goat anti-human secondary antibody; also called A06Ab
- EC50 [2]: 0.0037 µg/mL
- EC50 [3]: 0.257 µg/mL

B5: humanized anti-ALPP antibody A04 (antibody, V domains shown)
VH: B2 VH with K13A
VL: B2 VL
notes: Detected with a goat anti-human secondary antibody; also called A04Ab
- EC50 [2]: 0.00589 µg/mL
- EC50 [3]: 0.286 µg/mL
